# Data as given in the supplement of paper PMC9112550, “Optimization of the antimicrobial peptide Bac7 by deep mutational scanning” (BMC Biology, 2022).
# Test system: Escherichia coli TOP10
# Assay: shrunken log2 fold change of peptide-encoding DNA abundance (4.5 h post-induction vs induction); higher = less antimicrobial activity (less host growth inhibition)
# Settings: time post-induction: 4.5 h; library: site-saturation at positions 5, 18, 19, 20
# 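Note: peptides expressed intracellularly from a pBAD plasmid library in pooled LB shake-flask culture, induced with 0.3% L-arabinose, DNA abundance read by NGS, three biological replicates, DESeq2 with apeglm shrinkage.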
row,Sequence,shrunken log2 fold change
1,RRIRNRPPRLPRPRPRPFWMPRP,-0.112
2,RRIRKRPPRLPRPRPRPHHAPRP,-0.066
3,RRIRYRPPRLPRPRPRPKQMPRP,0.0213
4,RRIRKRPPRLPRPRPRPPYWPRP,0.429
5,RRIRGRPPRLPRPRPRPGHVPRP,0.204
6,RRIRNRPPRLPRPRPRPDITPRP,-0.0553
7,RRIRERPPRLPRPRPRPLDGPRP,-0.0344
8,RRIRERPPRLPRPRPRPLPPPRP,0.124
9,RRIRLRPPRLPRPRPRPMKLPRP,-0.187
10,RRIRARPPRLPRPRPRPTEAPRP,0.453
11,RRIRERPPRLPRPRPRPARLPRP,0.361
12,RRIRKRPPRLPRPRPRPIWCPRP,-0.0231
13,RRIRMRPPRLPRPRPRPGVMPRP,0.633
14,RRIRVRPPRLPRPRPRPTFDPRP,-0.0428
15,RRIRNRPPRLPRPRPRPANYPRP,-0.0161
16,RRIRIRPPRLPRPRPRPECYPRP,-0.146
17,RRIRCRPPRLPRPRPRPTPRPRP,0.987
18,RRIRTRPPRLPRPRPRPTSVPRP,0.0486
19,RRIRWRPPRLPRPRPRPCDCPRP,-0.291
20,RRIRSRPPRLPRPRPRPTECPRP,-0.00271
21,RRIRKRPPRLPRPRPRPTKHPRP,0.195
22,RRIRRRPPRLPRPRPRPIAAPRP,0.521
23,RRIRERPPRLPRPRPRPGPWPRP,0.186
24,RRIRARPPRLPRPRPRPVYNPRP,-0.482
25,RRIRARPPRLPRPRPRPDYNPRP,-0.57

row,Sequence,shrunken log2 fold change
1,RRIRQRPPRLPRPRPRPNPMPRP,-0.00515
2,RRIRLRPPRLPRPRPRPGHIPRP,-0.197
3,RRIRIRPPRLPRPRPRPANCPRP,-1.1
4,RRIRWRPPRLPRPRPRPSIIPRP,-0.31
5,RRIRWRPPRLPRPRPRPCVSPRP,0.144
6,RRIRYRPPRLPRPRPRPPMHPRP,-0.418
7,RRIRERPPRLPRPRPRPNVSPRP,-0.00968
8,RRIRRRPPRLPRPRPRPEIRPRP,0.0292
9,RRIRTRPPRLPRPRPRPGWYPRP,-0.23
10,RRIRGRPPRLPRPRPRPTPIPRP,0.79
11,RRIRYRPPRLPRPRPRPPAVPRP,-0.143
12,RRIRIRPPRLPRPRPRPADDPRP,-0.062
13,RRIRSRPPRLPRPRPRPHDQPRP,0.276
14,RRIRRRPPRLPRPRPRPMAAPRP,1.15
15,RRIRNRPPRLPRPRPRPGTYPRP,-0.0105
16,RRIRERPPRLPRPRPRPWHNPRP,-0.344
17,RRIRKRPPRLPRPRPRPYCPPRP,0.0231
18,RRIRSRPPRLPRPRPRPNREPRP,-0.138
19,RRIRNRPPRLPRPRPRPSLPPRP,-0.378
20,RRIRPRPPRLPRPRPRPYEKPRP,-0.0835
21,RRIRMRPPRLPRPRPRPGCYPRP,0.135
22,RRIRFRPPRLPRPRPRPMGGPRP,-0.166
23,RRIRYRPPRLPRPRPRPKPIPRP,0.0874
24,RRIRARPPRLPRPRPRPSVTPRP,0.0595
25,RRIRERPPRLPRPRPRPYYWPRP,-0.192

row,Sequence,shrunken log2 fold change
1,RRIRSRPPRLPRPRPRPQTMPRP,-0.35
2,RRIRVRPPRLPRPRPRPRGWPRP,0.666
3,RRIRPRPPRLPRPRPRPYSVPRP,-1.01
4,RRIRNRPPRLPRPRPRPEFYPRP,-0.243
5,RRIRERPPRLPRPRPRPDRTPRP,-0.0361
6,RRIRVRPPRLPRPRPRPSTNPRP,-0.146
7,RRIRHRPPRLPRPRPRPISKPRP,-0.929
8,RRIRKRPPRLPRPRPRPYASPRP,0.0496
9,RRIRSRPPRLPRPRPRPMGHPRP,-0.256
10,RRIRERPPRLPRPRPRPREYPRP,-0.242
11,RRIRCRPPRLPRPRPRPPKCPRP,0.203
12,RRIRYRPPRLPRPRPRPTNKPRP,-0.699
13,RRIRCRPPRLPRPRPRPVMKPRP,-0.342
14,RRIRDRPPRLPRPRPRPSAPPRP,0.0189
15,RRIRSRPPRLPRPRPRPRYRPRP,-0.276
16,RRIRLRPPRLPRPRPRPQKTPRP,-0.03
17,RRIRERPPRLPRPRPRPVDHPRP,-0.195
18,RRIRERPPRLPRPRPRPHDYPRP,0.0456
19,RRIRLRPPRLPRPRPRPGHWPRP,0.279
20,RRIRTRPPRLPRPRPRPMTMPRP,-0.223
21,RRIRGRPPRLPRPRPRPDHWPRP,0.186
22,RRIRVRPPRLPRPRPRPFGQPRP,-0.222
23,RRIRKRPPRLPRPRPRPAENPRP,0.0163
24,RRIRGRPPRLPRPRPRPVDWPRP,1.03
25,RRIRDRPPRLPRPRPRPAQHPRP,0.288

row,Sequence,shrunken log2 fold change
1,RRIRARPPRLPRPRPRPLMYPRP,-0.165
2,RRIRTRPPRLPRPRPRPAAQPRP,0.312
3,RRIRQRPPRLPRPRPRPYHIPRP,0.0735
4,RRIRSRPPRLPRPRPRPCPDPRP,-0.388
5,RRIRARPPRLPRPRPRPHIRPRP,-0.0962
6,RRIRMRPPRLPRPRPRPPCDPRP,0.506
7,RRIRSRPPRLPRPRPRPIQWPRP,0.268
8,RRIRTRPPRLPRPRPRPSIHPRP,-0.561
9,RRIRGRPPRLPRPRPRPRYHPRP,-0.0711
10,RRIRLRPPRLPRPRPRPTNHPRP,-0.174
11,RRIRVRPPRLPRPRPRPPYWPRP,0.121
12,RRIRSRPPRLPRPRPRPVSFPRP,0.118
13,RRIRVRPPRLPRPRPRPFTEPRP,-0.423
14,RRIRERPPRLPRPRPRPSGFPRP,0.0785
15,RRIRYRPPRLPRPRPRPTLKPRP,-0.283
16,RRIRWRPPRLPRPRPRPSAMPRP,0.252
17,RRIRFRPPRLPRPRPRPDIYPRP,-0.0949
18,RRIRRRPPRLPRPRPRPHTNPRP,-0.547
19,RRIRERPPRLPRPRPRPRPIPRP,0.345
20,RRIRMRPPRLPRPRPRPNDVPRP,-0.00114
21,RRIRTRPPRLPRPRPRPHKPPRP,-0.0565
22,RRIRLRPPRLPRPRPRPCISPRP,-0.177
23,RRIRRRPPRLPRPRPRPEIGPRP,0.244
24,RRIRDRPPRLPRPRPRPPCEPRP,0.121
25,RRIRNRPPRLPRPRPRPQLKPRP,-0.0663

row,Sequence,shrunken log2 fold change
1,RRIRFRPPRLPRPRPRPASGPRP,0.206
2,RRIRPRPPRLPRPRPRPQVEPRP,0.102
3,RRIRLRPPRLPRPRPRPASEPRP,0.159
4,RRIRKRPPRLPRPRPRPDRTPRP,0.0739
5,RRIRIRPPRLPRPRPRPRWIPRP,-0.0611
6,RRIRIRPPRLPRPRPRPNCIPRP,-0.408
7,RRIRVRPPRLPRPRPRPIHSPRP,-0.252
8,RRIRQRPPRLPRPRPRPQRCPRP,0.0862
9,RRIRPRPPRLPRPRPRPPGGPRP,0.968
10,RRIRCRPPRLPRPRPRPMMNPRP,-0.278
11,RRIRDRPPRLPRPRPRPNIAPRP,0.169
12,RRIRHRPPRLPRPRPRPASDPRP,-0.0278
13,RRIRHRPPRLPRPRPRPMASPRP,-0.0864
14,RRIRMRPPRLPRPRPRPTIVPRP,-0.0671
15,RRIRYRPPRLPRPRPRPMCGPRP,-0.17
16,RRIRYRPPRLPRPRPRPLRCPRP,0.0617
17,RRIRCRPPRLPRPRPRPIHHPRP,-0.481
18,RRIRFRPPRLPRPRPRPEWCPRP,0.0522
19,RRIRARPPRLPRPRPRPHRTPRP,-0.115
20,RRIRGRPPRLPRPRPRPPEGPRP,1.15
21,RRIRERPPRLPRPRPRPQHNPRP,-0.771
22,RRIRVRPPRLPRPRPRPKHDPRP,-0.31
23,RRIRWRPPRLPRPRPRPHDRPRP,0.00489
24,RRIRRRPPRLPRPRPRPGCEPRP,0.354
25,RRIRLRPPRLPRPRPRPWFRPRP,-0.252
